Measured values as given in patent US20220372138A1 (IOMX THERAPEUTICS, published 2022).
Like-named read-outs stand apart in the source and are kept apart here. Blank lines part the entries; values can stand above or below the binder they belong to.

Legend:
[1] = target: T1, extracellular domain (ECD) of human IGSF11 (VSIG3), recombinant (human, UniProt Q5DX21 23-241); experiment: SPR
T1 construct: biotinylated where captured on streptavidin; tags of the reagent not always stated; also called IGSF11 (ECD domain); ECD-IGSF11
T1 sequence: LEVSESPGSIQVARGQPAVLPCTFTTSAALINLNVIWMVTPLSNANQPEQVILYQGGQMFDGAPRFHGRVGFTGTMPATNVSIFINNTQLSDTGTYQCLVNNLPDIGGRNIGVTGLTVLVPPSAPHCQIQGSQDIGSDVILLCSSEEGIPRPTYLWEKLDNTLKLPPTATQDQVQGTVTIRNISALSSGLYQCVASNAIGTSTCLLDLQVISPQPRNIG

[2] = target: T2, full-length ECD of human IGSF11 fused to murine Fc (human, UniProt Q5DX21 23-241); experiment: IgG ELISA
T2 construct: also called Fc-fusion IGSF11 ECD; not shown: murine Fc
T2 sequence: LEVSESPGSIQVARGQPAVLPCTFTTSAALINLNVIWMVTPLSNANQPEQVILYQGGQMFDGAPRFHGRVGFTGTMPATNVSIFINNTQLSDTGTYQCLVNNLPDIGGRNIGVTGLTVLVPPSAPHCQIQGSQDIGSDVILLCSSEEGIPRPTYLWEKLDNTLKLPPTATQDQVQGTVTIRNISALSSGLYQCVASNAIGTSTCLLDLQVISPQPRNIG

[3] = target: T3, IgV domain of human IGSF11 fused to murine IgG2a Fc (human, UniProt Q5DX21 23-143); experiment: IgG ELISA
T3 construct: not shown: murine IgG2a Fc-region
T3 sequence: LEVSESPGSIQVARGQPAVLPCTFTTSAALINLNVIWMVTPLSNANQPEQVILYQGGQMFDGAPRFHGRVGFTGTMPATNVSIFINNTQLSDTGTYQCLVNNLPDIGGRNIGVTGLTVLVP

[4] = target: T4, human IGSF11 (VSIG3) expressed on cells (human, UniProt Q5DX21 23-431); experiment: IgG1 FACS DMS 273
T4 sequence: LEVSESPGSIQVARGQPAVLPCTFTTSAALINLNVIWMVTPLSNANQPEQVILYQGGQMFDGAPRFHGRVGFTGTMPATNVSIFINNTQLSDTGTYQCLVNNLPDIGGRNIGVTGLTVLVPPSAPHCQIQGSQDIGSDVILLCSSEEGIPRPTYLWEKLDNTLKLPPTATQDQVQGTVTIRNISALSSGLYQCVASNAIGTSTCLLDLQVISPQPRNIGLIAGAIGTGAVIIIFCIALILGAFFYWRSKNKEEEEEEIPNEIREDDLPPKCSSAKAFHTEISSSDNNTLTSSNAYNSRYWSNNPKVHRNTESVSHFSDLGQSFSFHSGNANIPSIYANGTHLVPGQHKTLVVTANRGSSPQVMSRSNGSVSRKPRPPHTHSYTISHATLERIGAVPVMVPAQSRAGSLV

[5] = target: T5, human IGSF11 (VSIG3) ECD, His-tagged (human, UniProt Q5DX21 23-241); experiment: IgG1 ELISA EC50 0.02-0.05 nM
T5 construct: in part bought (SinoBiological 13094-H08H); also called HIS-IGSF11; IGSF11-HIS; not shown: His tag
T5 sequence: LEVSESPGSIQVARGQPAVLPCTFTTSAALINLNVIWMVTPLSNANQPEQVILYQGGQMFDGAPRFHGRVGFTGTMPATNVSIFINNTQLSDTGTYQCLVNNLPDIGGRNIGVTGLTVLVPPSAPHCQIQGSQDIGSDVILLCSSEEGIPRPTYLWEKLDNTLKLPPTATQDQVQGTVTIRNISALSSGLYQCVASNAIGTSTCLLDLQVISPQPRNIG

[6] = target: T2, full-length ECD of human IGSF11 fused …; experiment: ELISA: Fc-fusion IGSF11 ECD coated, IgG dilution series, anti-human IgG-HRP
Procedure: (§1) Binding of IgG antibodies to each of the full-length ECD of IGSF11, to the IgV domain of IGSF11 and to the IgC2 domain of IGSF11, was tested in the ELISA assay as follows: briefly, recombinant domains of Fc-fusion IGSF11 proteins were coated at 2 ug/mL on a 384-well Maxisorp plate. The surface was blocked with 2% (w/v) skim milk powder in PBST. […] After removing all unbound antibodies by 3 wash cycles with PBST, bound IgG ABPs were detected with a goat anti-human IgG antibody conjugated with horseradish peroxidase. After three wash cycles with PBST the ELISA was developed with TMB substrate.

[7] = target: T6, IgC2 domain of human IGSF11 fused to murine IgG2a Fc (human, UniProt Q5DX21 137-241); experiment: BLI: IgC2 domain-mFc captured on the sensor, IgG1 in solution, concentrations not given [Cont.) D]
T6 construct: not shown: murine IgG2a Fc-region
T6 sequence: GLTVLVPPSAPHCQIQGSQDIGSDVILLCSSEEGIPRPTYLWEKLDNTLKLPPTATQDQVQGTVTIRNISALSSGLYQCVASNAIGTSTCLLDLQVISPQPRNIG

[8] = target: T4, human IGSF11 (VSIG3) expressed on cells; experiment: IgG FACS Colo741
Source text: (§2) Unbound antibodies were removed by washing the cells three time with FACS buffer. Bound antibodies were detected with a mouse anti-human IgG antibody conjugated with AlexaFluor647.

[9] = target: T7, murine IGSF11 expressed on cells (mouse, UniProt P0C673 23-428); experiment: IgG FACS MC38-wt; MC38-wt cells (murine line, not transfected)
T7 construct: MC38-IGSF11, CT26-IGSF11, MC38-wt (naturally expresses murine IGSF11)
T7 sequence: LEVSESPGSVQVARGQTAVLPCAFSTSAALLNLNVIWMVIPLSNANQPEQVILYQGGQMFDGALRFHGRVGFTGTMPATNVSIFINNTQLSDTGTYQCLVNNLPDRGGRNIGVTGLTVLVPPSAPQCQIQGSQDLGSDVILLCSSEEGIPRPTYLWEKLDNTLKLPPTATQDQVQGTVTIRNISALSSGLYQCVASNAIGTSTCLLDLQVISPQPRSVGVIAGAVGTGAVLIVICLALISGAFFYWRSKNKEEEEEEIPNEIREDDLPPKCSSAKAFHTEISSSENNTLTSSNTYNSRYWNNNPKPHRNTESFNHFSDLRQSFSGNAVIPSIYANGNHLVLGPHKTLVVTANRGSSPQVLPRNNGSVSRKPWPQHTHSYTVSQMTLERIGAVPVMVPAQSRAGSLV
Source text: as §2

[10] = target: T1, extracellular domain (ECD) of human …; experiment: BLI: biotinylated IGSF11 on streptavidin sensor, ABP bound for 600 s, then VISTA.COMP; VISTA response normalised to that without antibody
Source text: Briefly, biotinylated IGSF11 was loaded on an optical biosensor via a streptavidin surface. The IGSF11-loaded biosensor was dipped into the samples with different concentrations of anti-IGSF11 ABP, and ABPs were bound for 600s.

[11] = target: T2, full-length ECD of human IGSF11 fused …; experiment: IgG ELISA; remark: listed apart in the source
[12] = target: T6, IgC2 domain of human IGSF11 fused to …; experiment: IgG ELISA
[13] = target: T7, murine IGSF11 expressed on cells; experiment: IgG FACS CT26-IGSF11
Source text: as §2

[14] = target: T7, murine IGSF11 expressed on cells; experiment: IgG FACS MC38-IGSF11
Source text: as §2

[15] = target: T4, human IGSF11 (VSIG3) expressed on cells; experiment: IgG FACS MDA-MB-231-IGSF11
Source text: as §2

[16] = target: T1, extracellular domain (ECD) of human …; experiment: BLI apparent affinity, IgG on AHC sensor, IGSF11 ECD 100 nM
Source text: Briefly, various APBs were loaded on an optical biosensor via a commercially available Capture System (AHC sensors, ForteBio).

[17] = target: T7, murine IGSF11 expressed on cells; experiment: IgG FACS, murine IGSF11 cell lines of Table 13.4; murine IGSF11 cell lines (MC38-IGSF11, MC38-wt)
[18] = target: T4, human IGSF11 (VSIG3) expressed on cells; experiment: IgG FACS, human IGSF11 cell lines of Table 13.4; human IGSF11 cell lines (Colo741, MDA-MB-231-IGSF11)
[19] = target: T1, extracellular domain (ECD) of human …; experiment: BLI
[20] = target: T6, IgC2 domain of human IGSF11 fused to …; experiment: IgG ELISA; remark: listed apart in the source
Procedure: as §1

[21] = target: T4, human IGSF11 (VSIG3) expressed on cells; experiment: IgG1 FACS HEK-OE
[22] = target: T5, human IGSF11 (VSIG3) ECD, His-tagged; experiment: IgG1 ELISA EC50 <0.02 nM
[23] = target: T4, human IGSF11 (VSIG3) expressed on cells; experiment: FACS, DMS 273 cells with scrambled control siRNA (SC)
[24] = target: T4, human IGSF11 (VSIG3) expressed on cells; experiment: FACS, M579-A2-luc cells with scrambled control siRNA (SC)
[25] = target: T4, human IGSF11 (VSIG3) expressed on cells; experiment: FACS, DMS 273 cells with IGSF11 siRNA (KD, knock-down control)
[26] = target: T4, human IGSF11 (VSIG3) expressed on cells; experiment: FACS, M579-A2-luc cells with IGSF11 siRNA (KD, knock-down control)
[27] = target: T2, full-length ECD of human IGSF11 fused …; experiment: ELISA: Fc-fusion IGSF11 ECD coated, IgG dilution series, anti-human IgG-HRP; remark: listed apart in the source
Procedure: as §1

[28] = target: T5, human IGSF11 (VSIG3) ECD, His-tagged; experiment: ELISA: IGSF11-HIS coated, IgG1 dilution series, anti-human antibody-HRP, TMB
[29] = target: T6, IgC2 domain of human IGSF11 fused to …; experiment: ELISA: IgC2 domain-mFc fusion coated, IgG dilution series, anti-human IgG-HRP
Procedure: as §1

[30] = target: T3, IgV domain of human IGSF11 fused to …; experiment: BLI: IgV domain-mFc captured on the sensor, IgG1 in solution, concentrations not given [Cont.) D]
[31] = target: T5, human IGSF11 (VSIG3) ECD, His-tagged; experiment: blocking ELISA: VSIR-Fc immobilised, IgG dilution series pre-incubated with 200 nM IGSF11 ECD-His, bound IGSF11 detected with anti-His-HRP
Procedure: All binding steps were for 1 hour at room temperature, and all washing steps were three times washing with PBS/Tween (0.05%).

B2: D-114 (IgG format) (antibody, V domains shown)
VH: EVQLLESGGGLVQPGGSLRLSCAASGFTFQFSALSWVRQAPGKGLEWVSAISYGGGSKYYADSVKGRFTISRDNSKNTLYLQMNSLRAEDTAVYYCARDSRDAYGVAFDLWGQGTMVTVSS
VL: ASVLTQPPSVSAAPGQKVTISCSGSSSNIGNNYVSWYQQLPGTAPKLLIYDNNKRPSGIPDRFSGSKSGTSATLGITGLQAEDEADYYCLSYKLSPGAYVFGGGTKLTVL
EC50 [8]: < 0.5 nM
EC50 [9]: < 0.5 nM
IC50 (read off the curve) [10]: ~0.7 nM

B3: C-005 (IgG1 format) (antibody, V domains shown)
VH: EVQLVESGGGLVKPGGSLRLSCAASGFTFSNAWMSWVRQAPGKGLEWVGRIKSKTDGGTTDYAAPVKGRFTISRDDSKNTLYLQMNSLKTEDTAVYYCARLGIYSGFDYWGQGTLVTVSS
VL: SYELTQPPSVSVSPGQTASITCSGDKLGDKYASWYQQKPGQSPVLVIYQDSKRPSGIPERFSGSNSGNTATLTISGTQAEDEADYYCHSYTGKPSQVVFGGGTKLTVL
EC50 [11]: < 1 nM
EC50 [12]: < 1 nM
EC50 [13]: < 20 nM
EC50 [14]: < 20 nM
EC50 [15]: < 10 nM
Kd [16]: < 15 nM
EC50 [17]: ~2 nM
EC50 [18]: ~2 nM

The next lines start with the values.

Kd [1]: > 500 nM
EC50 [2]: < 1 nM
EC50 [3]: < 1 nM
EC50 [4]: < 10 nM
EC50 [5]: 0.02 to 0.05 nM
EC50 (read off the curve) [6]: ~0.4 nM
binding result [7]: no binding
B1: A-024 (IgG1 format) (antibody, V domains shown)
VH: QMQLVQSGAEVKKPGSSVKVSCKASGGTFSSYAISWVRQAPGQGLEWMGWISAYNGNTNYAQKLQGRVTMTTDTSTSTAYMELRSLRSDDTAVYYCASLGSYGYTGAFDIWGQGTMATVSS
VL: QSALTQPASVSGSPGQSITISCTGTSSDVGGYNYVSWYQQHPGKAPKLMIYEVSNRPSGVSNRFSGSKSGNTASLTISGLQAEDEADYYCSSYTSSSTLVVFGGGTKLTVL
notes: also called A-024-like ABP

Kd [19]: 1 to 10 nM
Kd [1]: 250 to 500 nM
EC50 [2]: < 1 nM
EC50 [20]: < 1 nM
EC50 [21]: 10 to 50 nM
EC50 [4]: > 50 nM
EC50 [22]: < 0.02 nM
Kd [16]: < 15 nM
% binding (FACS heat-map) [23]: 81.1%
% binding (FACS heat-map) [24]: 75.3%
% binding (FACS heat-map) [25]: 5.72%
% binding (FACS heat-map) [26]: 2.59%
EC50 (read off the curve) [27]: ~0.5 nM
EC50 (read off the curve) [28]: ~0.01 nM
EC50 (read off the curve) [29]: ~0.4 nM
binding result [30]: no binding
IC50 (read off the curve) [31]: ~4 nM
B4: A-006 (IgG1 format) (antibody, V domains shown)
VH: EVQLVESGGGLIQPGGSLRLSCAASGFTVSSNYMSWVRQAPGKGLEWVSVIYSGGSTYYADSVKGRFTISRDNSKNTLYLQMNSLRAEDTAVYYCARGNPYYYGDLQVNFDYWGQGTLVTVSS
VL: QAVVTQEPSLTVSPGGTVTLTCASSTGAVTSGYYPNWFQQKPGQAPRPLIYSTSNKHSWTPARFSGSLLGGKAALTLSGVQPDDEAEYYCLLYYGGDWVFGGGTKLTVL
notes: human IgG1 format; also called A-006-like ABP
